Measurements taken from patent US20190225703A1 (INNATE PHARMA, published 2019).
Positions count from the first letter of the chain named.

What was measured:
[1] = target: T1, human CD73 (ecto-5'-nucleotidase) expressed at the cell surface (human, UniProt P21589 27-549); assay: flow cytometry titration on human-CD73-expressing cell line
T1 construct: Used for huCD73-expressing recombinant cell lines, MDA-MB-231 cells (endogenous CD73), HEK-293T cells with wild type CD73, and primary T and B cells; also called huCD73; wild type CD73
T1 sequence: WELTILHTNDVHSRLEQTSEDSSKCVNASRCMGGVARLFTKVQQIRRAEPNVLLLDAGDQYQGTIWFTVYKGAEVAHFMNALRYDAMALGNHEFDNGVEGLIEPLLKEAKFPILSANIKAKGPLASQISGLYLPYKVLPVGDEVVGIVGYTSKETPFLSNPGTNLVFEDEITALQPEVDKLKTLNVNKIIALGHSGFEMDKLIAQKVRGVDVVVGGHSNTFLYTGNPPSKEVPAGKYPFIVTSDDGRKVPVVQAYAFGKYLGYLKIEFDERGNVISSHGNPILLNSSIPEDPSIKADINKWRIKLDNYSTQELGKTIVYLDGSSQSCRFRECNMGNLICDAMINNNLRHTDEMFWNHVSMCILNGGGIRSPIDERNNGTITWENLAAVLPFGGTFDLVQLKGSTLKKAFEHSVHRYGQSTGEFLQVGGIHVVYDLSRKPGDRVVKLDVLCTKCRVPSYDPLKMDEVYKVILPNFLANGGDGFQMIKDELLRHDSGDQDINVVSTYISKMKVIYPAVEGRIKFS
Protocol: 10⁵ cells resuspended in PBS/0.2% BSA/0.02% NaN3 (named “staining buffer”) are distributed into round bottom 96W-microplates. Dose-range of anti-CD73 antibodies was added to the plates and cells are incubated for 45 min at 4° C. Cells were washed three times in staining buffer by spinning plates at 400 g for 3 min at 4° C. PE-coupled goat anti-mouse or goat anti-human IgG Fc fragment secondary antibodies (Beckman Coulter) diluted in staining buffer were added to the cells and plates are incubated for 30 additional minutes at 4° C. Cells were washed three times as described above and analyzed on an Accury C6 flow cytometer equipped with an HTFC plate reader.
Median of fluorescence vs. antibodies concentration was plotted on graphs and EC50 is calculated using GraphPad Prism program.

human CD73 mutant 4 = target: T2, human CD73 mutant 4 (human, UniProt P21589 27-549); assay: flow cytometry titration on HEK-293T cells transfected with CD73 mutant 4
T2 construct: Transfected in HEK-293T cells
T2 chain: T1 sequence with K119A, K121A, S126H, S129A, Y135S, E177A, K180A
Protocol: (§1) Anti-CD73 antibodies are tested for their binding to each mutant by flow cytometry. A first experiment is performed to determine antibodies that lose their binding to one or several mutants at one concentration. To confirm a loss of binding, titration of antibodies is done on antibodies for which binding seemed to be affected by the CD73 mutations (1-0.1-0.01-0.001 μg/ml).

[2] = target: T1, human CD73 (ecto-5'-nucleotidase) …; assay: flow cytometry titration on HEK-293T cells transfected with wild type human CD73
Protocol: as §1

[3] = target: T3, recombinant human CD73-His extracellular domain protein, soluble dimer (human, UniProt P21589 27-547); assay: SPR (Biacore T100, 25 °C), antibody captured on Protein-A, soluble dimeric CD73 injected 1.23 to 300 nM, 1:1 kinetic model, bivalent affinity
T3 construct: also called huCD73 protein; human recombinant soluble dimeric CD73
T3 sequence: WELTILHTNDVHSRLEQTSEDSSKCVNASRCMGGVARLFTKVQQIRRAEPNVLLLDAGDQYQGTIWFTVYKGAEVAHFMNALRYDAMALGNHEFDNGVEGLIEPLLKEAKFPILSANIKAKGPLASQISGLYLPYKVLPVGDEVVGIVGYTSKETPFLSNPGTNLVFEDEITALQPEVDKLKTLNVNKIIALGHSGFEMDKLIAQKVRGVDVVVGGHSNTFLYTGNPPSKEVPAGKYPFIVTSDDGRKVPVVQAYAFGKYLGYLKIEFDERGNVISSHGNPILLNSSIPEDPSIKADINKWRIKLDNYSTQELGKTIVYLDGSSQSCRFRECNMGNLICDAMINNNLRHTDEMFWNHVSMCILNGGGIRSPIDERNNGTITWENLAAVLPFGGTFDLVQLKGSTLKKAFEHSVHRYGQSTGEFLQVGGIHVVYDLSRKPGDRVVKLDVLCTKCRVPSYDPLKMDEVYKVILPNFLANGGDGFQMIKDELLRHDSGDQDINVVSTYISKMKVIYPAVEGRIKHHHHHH
Protocol: SPR measurements were performed on a Biacore T100 apparatus (Biacore GE Healthcare) at 25° C. In all Biacore experiments HBS-EP+(Biacore GE Healthcare) and NaOH 10 mM served as running buffer and regeneration buffer respectively. Sensorgrams were analyzed with Biacore T100 Evaluation software. Protein-A was purchase from (GE Healthcare). Human soluble dimeric CD73 proteins were cloned, produced and purified at Innate Pharma.
Protein-A proteins were immobilized covalently to carboxyl groups in the dextran layer on a Sensor Chip CMS. The chip surface was activated with EDC/NHS (N-ethyl-N′-(3-dimethylaminopropyl) carbodiimide hydrochloride and N-hydroxysuccinimide (Biacore GE Healthcare). Protein-A was diluted to 10 μg/ml in coupling buffer (10 mM acetate, pH 5.6) and injected until the appropriate immobilization level was reached (i.e. 2000 RU). Deactivation of the remaining activated groups was performed using 100 mM ethanolamine pH 8 (Biacore GE Healthcare).
Affinity study was carried out according to a standard Capture-Kinetic protocol recommended by the manufacturer (Biacore GE Healthcare kinetic wizard). Serial dilutions of human recombinant soluble dimeric CD73 proteins, ranging from 1.23 to 300 nM were sequentially injected over the captured anti-CD73 antibodies and allowed to dissociate for 10 min before regeneration. […]

B1: antibody 7H10 (antibody, human IgG1, V domains shown)
VH: DVQLQESGPGLVKPSQSLSLTCTVTGYSITSDYAWNWIRQFPGNKLEWMGYIIYSGSTSYNPSLNSRISITRDTSKNQFFLQLNSVTTEDTATYYCAREAYLYFDYWGQGTTLTVSS
VL: DIQMTQTTSSLSASLGDRVTISCRASQDINNYLNWYQQKPDGTVKLLIYYTSRLHSGVPSRFSGSGSGTDYSLTISNLEREDVATYFCQQGNTLPWTFGGGTKLEIK
- EC50 [1]: 0.187 µg/mL
- EC50 (read off the curve) (human CD73 mutant 4): ~0.2 µg/mL
- EC50 (read off the curve) [2]: ~0.2 µg/mL
- Kd [3]: 527 pM
